This is an account of results in the supplement of paper PMC12042874.

± gives the uncertainty stated by the source.

The data set can be described thus: amyloid nucleation score (Sup35N fusion, yeast selection) (log enrichment); library NNK1; higher = more nucleation; inactive = no reads after selection. In outline: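 DiMSum was used to calculate nucleation scores as log enrichment of output over input reads, centred on the mode score of non-aggregating sequences. Sequences with fewer than 100 input reads were not scored. Input and output came from Illumina sequencing of plasmid inserts in psi-negative yeast expressing peptides of 20 random codons fused to Sup35N, induced 24 hours with 100 μM copper sulfate and then grown 7 days at 30°C on medium lacking adenine and uracil.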
For FEVNFPAYIYWSDCPVVGVS, the amyloid nucleation score was -0.127 ± 0.38.
Then GWLIR, with “inactive”; and IGDKYGYCKYGRYADGQVIS, with “inactive”; and VDRQFTDEFKVFTEGTKVDE, with -0.5 ± 1.4.
For FNCLMALIFPDVLDCSYSVD, the amyloid nucleation score stood at 1.26 ± 0.9.
Then WVQFLDMGAVMKIWLVKCFP, with -0.485 ± 1.1; and DISMLRKKSCKHTVNMMSL, with -0.431 ± 0.27; and RTGPLSVASGAVPYGYQPWL, with -0.203 ± 0.62.
PFVRVLTLGYAGVWNGRGKP came in with an amyloid nucleation score of 0.904 ± 0.57.
The same measure for YLGSGCRFETSYLDATFPVS: 0.387 ± 1.
The same measure for FISCCARIFTTCGIAD: 1.19 ± 0.14; for RLYWSCCDRVDTFLCVF: 4.43 ± 0.099.
Take LWLTHKCYCLDSNTCIKCEL: the amyloid nucleation score was -0.312 ± 0.38.
Then LVFFHISR, with 4.94 ± 0.1.
The same measure for VVATKLSV: -0.95 ± 1.4; for GTKNLCDYIWPGPPGSVVRN: -0.159 ± 0.56; for FRDSTET: 0.495 ± 1.4.
Then IKWYAY, with 0.952 ± 0.68; and VFRPGRSSDCNLSMLVQRVW, with 4.18 ± 0.088.
As for GAVICICCIIIGKYC, the amyloid nucleation score was 3.74 ± 0.082.
The same measure for PLVKGIHSNPRTYTTMYYSY: -1.93 ± 2.7.
On to YTINPRKIRGTPPPIPCRVQ, for which the amyloid nucleation score was determined as 0.16 ± 0.73.
The same measure for IASFVEERLSEIPYLATLGL: -0.385 ± 0.46; for KSAANTINIRPENETVPRFQ: 0.556 ± 0.59; for EMFHVVGSRLMPVRMVRNQC: “inactive”.
Then PGRFLGLNSMTALVWY, with 0.095 ± 0.37; and NQVENTWCMSLRLFSYSHTL, with 7.548 ± 0.058; and GRRGKWVSSPWGGELKTCSK, with 4.24 ± 0.084.
The same measure for MYGITKSA: 0.195 ± 0.64; for LMSASNLNAVSKQCIRLRRC: 1.48 ± 0.55.
With TEKAPGTGAKQANSKSSAYA, the amyloid nucleation score result is “inactive”.
Regarding RDRCT, the amyloid nucleation score was 0.49 ± 0.36.
For LMFLGWSNRKMTSHSIMTVL, the amyloid nucleation score is 0.293 ± 1.
The substance AWYMPIWFLAYFL registered an amyloid nucleation score of 1.24 ± 0.14.
In the case of AGSEVFEK, the amyloid nucleation score was found to be 0.073 ± 0.32.
The same measure for SRTYFESRDFEEYRAMRPSL: “inactive”.
Then MLGCVGSCTR, with -1.08 ± 1.1; and TSPCYWNCI, with “inactive”.
Take RVLCCRYN: the amyloid nucleation score was found to be 0.19 ± 0.51.
Then TSFYTGFWCPA, with -0.232 ± 0.57; and FWRGDRLVMSFEE, with -0.285 ± 0.83; and CVDRNG, with -0.362 ± 0.39.
RWLGRRMRAGFAYGAFRTGY yielded an amyloid nucleation score of 0.054 ± 0.8.
Then ICITYL, with 2.56 ± 0.12.
Then IMWLLLPRYDLFFRLMYTAS, with 0.617 ± 0.46; and SNVMWFYSWMWVRVTRRTCL, with 1.71 ± 0.49; and ILSDVDVCGYLRFMFWSMSD, with 1.58 ± 0.49.
The same measure for TPLWKSII: -0.046 ± 0.68.
In turn, CLLRTRFWR had an amyloid nucleation score of 0.364 ± 0.56.
The same measure for PMSKV: “inactive”; for VPALQQIPYCMI: 0.524 ± 0.57; for FIIVEECNFRNRRLTYRLFI: 0.816 ± 0.49.
Then HDREDWGDQSWYFILAWIFK, with -0.745 ± 0.44; and DVEIFTISWVKEVVYRDTWA, with 1.59 ± 0.7; and FRSGYRLACSAMSIAFCIYE, with 0.341 ± 0.48.
Then EICSSESAVQKHNSPWGSDY, with -1.71 ± 2.7; and TLWYLLQITYVLKFKW, with 0.301 ± 0.4.
Take QCRITDSFCSGA: the amyloid nucleation score was -0.163 ± 0.45.
LVMMTDIANWRLPCYFSNLW showed an amyloid nucleation score of 0.201 ± 0.54.
Then LVSQTYNMVARLRSSLARVN, with 0.243 ± 0.78; and WETVQLTGRVLFWAISYCKI, with -0.178 ± 0.52; and CRLDGT, with -0.36 ± 0.72.
The same measure for VNSSPFFMYKGVHFTWTYYS: 4.51 ± 0.1; for GGLGRYWTTHE: 0.436 ± 0.83; for TVFFDYDDIYLVNSVFRSAV: -0.113 ± 0.44.
YCGSTWASVWGPIICPRYRA returned an amyloid nucleation score of 0.208 ± 0.33.
The same measure for THAVREFWDLGGVNEENYGW: “inactive”.
RFSMFRQFRSDLGCFPIMVP returned an amyloid nucleation score of 0.254 ± 0.72.
The same measure for TIATLFIFRDLFNFECLNSH: 4.61 ± 0.1.
In turn, YDWNNLDVLLHCLFFGDKRR displayed an amyloid nucleation score of -0.021 ± 0.26.
Then LMIRILMVAQNSVLTVFW, with -0.324 ± 0.4; and GSLIIHHQWFFVIAMRVSLS, with 0.419 ± 0.53; and NNQHDGYSIFILDRQPLRAM, with 0.488 ± 0.59.
The same measure for SYKSWQ: 0.978 ± 0.43; for CFQPWKNLKAY: -0.67 ± 0.68; for PICCLLQLLGDSGWMCCSAW: 6.538 ± 0.061.
In turn, RSFVNARSSYDVGFFGWNGC registered an amyloid nucleation score of 2.29 ± 0.14.
The same measure for ALHVGLNSFPGMSRYV: 0.212 ± 0.89.
The substance NPLMTTLATSDMWRNQFISG had an amyloid nucleation score of 1.38 ± 0.41.
Then CGYMLVYDAHMHRSLLCAC, with -0.285 ± 0.26; and YQWIFIHLPAVLSVGMEIRY, with -0.672 ± 0.49; and DGRRLNLIWLYRIFWN, with -0.767 ± 0.37.
Then EPGSLTESKSFYFLSCPTTR, with 0.808 ± 0.7; and CDWGN, with 1.14 ± 0.93.
The same measure for STVREFSVVGPYVTGSVAGR: 0.383 ± 0.71.
With TVAGLT, the amyloid nucleation score is -0.224 ± 0.71.
Then YGHLVYTDHVWRRFETVKG, with 0.661 ± 0.84.
The same measure for TVCRSLSRLERHLR: 0.068 ± 0.63; for VCLSC: 2.03 ± 0.41; for LRTARNMGYICSIVSFNNLN: 5.13 ± 0.055.
The same measure for CFNMFT: -0.607 ± 0.76.
Turning to VSFTSIHMVIEDLRIKLNPA, the amyloid nucleation score was -0.426 ± 0.71.
Then VFESWKFELRVWIVVTFLHG, with 0.21 ± 0.52.
The same measure for VARHISAVSAWGACYRWCFR: 0.706 ± 0.51; for GHSDFYTTPLKLCRGE: 0.634 ± 0.72; for DDLLH: 0.387 ± 0.79.
NFVSYTFLCCGCVVLILVTS returned an amyloid nucleation score of 0.114 ± 0.28.
The same measure for YRICVKSSVQAGRLMFKVTG: -1.61 ± 2.7; for LSILSGWNTE: 0.146 ± 0.32; for LAFMYVGKYARRGLTIYNLI: -0.335 ± 0.54.
Then DFCVPHGNCFLA, with -0.747 ± 0.48.
The same measure for WKKGRMMIKSQSGGLSQVWG: 1.05 ± 0.59.
As to CMHEKIYIITCRSCGLREIR, the amyloid nucleation score worked out at 0.164 ± 0.39.
The same measure for FIFHSIGRSKISYKS: -0.229 ± 0.59; for AMPYCGK: 0.575 ± 0.36.
Then ARTRVLMKQVQGFKSFTILH, with 0.192 ± 0.52; and FHWVGVSYQLKMRRVKPKGV, with -0.441 ± 1.1; and LTLFEPLMRDCYICSYFNFF, with 7.047 ± 0.053.
The same measure for GLIQYPGFIASMYPSDNTSC: 0.135 ± 0.41; for YLASFMNLAISVGLVDGLCG: -1.29 ± 1.7; for YKSCCVGITPM: -0.551 ± 0.49.
NFVQLAWLVRWAWEV yielded an amyloid nucleation score of -0.088 ± 0.56.
As for TSSEFDLLNGQFANGYVLVH, the amyloid nucleation score is 0.546 ± 0.5.
Consider GFGSRRYFRAVLSCPR, for which the amyloid nucleation score was 0.852 ± 0.93.
Then KDEARRGLTLCPTGKDILDY, with -0.026 ± 0.47; and LLAGYCQSYIQLELSNSEHV, with -0.241 ± 0.84.
In turn, TLTSPWDSYKRFCKNSPLFN yielded an amyloid nucleation score of 0.353 ± 1.4.
The same measure for KSQTRDIFRGDVMC: -0.991 ± 0.71; for DFGRFTGSG: -0.824 ± 2.1; for CNDISISFYMRTGACYWRVW: -0.499 ± 0.46.
Substance DAIHVWCICRKSLVFILRNS showed an amyloid nucleation score of 0.086 ± 1.
For the substance PHVTGGSPCSKHSLRW, the amyloid nucleation score is -0.716 ± 0.65.
Then QLKGSSWYYENRVGRSGRGV, with 0.698 ± 0.49; and SGDSSYIMLLVVAPMYCQLP, with -0.148 ± 0.83.
Turning to CDSVV, the amyloid nucleation score was -0.221 ± 0.73.
The same measure for FRLTLGIVVLLVGK: “inactive”.
For EFPIHQERAPSTTIHPSVSC, the amyloid nucleation score is 0.765 ± 0.9.
The same measure for SMAPGDSS: 0.02 ± 0.34; for ITWFVYGPLGWMWGFLRPTA: 0.019 ± 0.62; for FQNELCKTDIWFRVREWESE: 0.196 ± 1.2.
Then KTFLHSTSYNNKKRWMSLRQ, with 0.485 ± 0.66; and CSSRVRMTRQLVKLVNICMR, with -0.122 ± 0.97.
Then NCEFIVWGVSSNFEMVFGLM, with -0.267 ± 0.9.
Regarding YNISDSTSPMVASRMGRLGQ, the amyloid nucleation score worked out at 0.364 ± 0.45.
The same measure for YLMMVIRKVFVPCCNG: 0.378 ± 0.21; for HDASSFSLMRKFRCGC: 0.333 ± 0.69.
Then CCIFIDFTVIALGRTLVVRH, with -1.17 ± 1.2.
The same measure for DSYDTTSNRAPVMLKVNYSM: -0.692 ± 0.64.
Substance TTCVELYVWRGWRGAGGTGV returned an amyloid nucleation score of -1.41 ± 2.4.
The same measure for LNICCEEYQDRYTTDNFLLL: 0.583 ± 0.57; for GGDSQCVLTGFWYCSTWGKG: 6.438 ± 0.056.
